# Where a chain is given by its changes, count along the chain named.
# T1: human p40 single mutant M23T (human, UniProt P29460 23-328)
# T1 construct: Transiently expressed in HEK293E cells; supernatant used
# T1 sequence: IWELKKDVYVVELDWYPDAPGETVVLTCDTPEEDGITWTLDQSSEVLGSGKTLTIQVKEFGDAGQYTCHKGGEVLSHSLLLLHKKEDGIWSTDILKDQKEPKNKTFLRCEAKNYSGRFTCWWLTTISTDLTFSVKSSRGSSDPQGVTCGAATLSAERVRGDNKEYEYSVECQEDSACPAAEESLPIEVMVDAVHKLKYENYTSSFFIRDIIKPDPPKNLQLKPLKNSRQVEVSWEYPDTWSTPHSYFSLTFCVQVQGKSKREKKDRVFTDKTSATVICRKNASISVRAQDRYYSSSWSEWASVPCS
# T2: human p40 single mutant L40T (human, UniProt P29460 23-328)
# T2 construct: Transiently expressed in HEK293E cells; supernatant used
# T2 sequence: T1 sequence with T23M, L40T
# T3: human p40 single mutant E45A (human, UniProt P29460 23-328)
# T3 construct: Transiently expressed in HEK293E cells; supernatant used
# T3 sequence: T1 sequence with T23M, E45A
# T4: human p40 single mutant S43R (human, UniProt P29460 23-328)
# T4 construct: Transiently expressed in HEK293E cells; supernatant used
# T4 sequence: T1 sequence with T23M, S43R
# B1: IL-12/IL-23p40 mAb (fully human monoclonal antibody directed against human IL-12/23p40) (antibody, V domains shown)
# VH: EVQLVQSGAEVKKPGESLKISCKGSGYSFTTYWLGWVRQMPGKGLDWIGIMSPVDSDIRYSPSFQGQVTMSVDKSITTAYLQWNSLKASDTAMYYCARRRPGQGYFDFWGQGTLVTVSS
# VL: DIQMTQSPSSLSASVGDRVTITCRASQGISSWLAWYQQKPEKAPKSLIYAASSLQSGVPSRFSGSGSGTDFTLTISSLQPEDFATYYCQQYNIYPYTFGQGTKLEIKR
# notes: Whole IgG made in a mammalian cell line and purified on protein A; also called IL-12/23p40 mAb; IL-12p40 antibody
# Assays:
# [1] = target: IL-12 (mouse; target of the rat anti-mouse mAbs C17.8 and C18.2) (mouse) (UniProt P43432); experiment: cell-based or functional assay
# Chain of IL-12 (mouse; target of the rat anti-mouse mAbs C17.8 and C18.2) (mouse) (P43432 23-335 limits assumed, chain 1 of 2): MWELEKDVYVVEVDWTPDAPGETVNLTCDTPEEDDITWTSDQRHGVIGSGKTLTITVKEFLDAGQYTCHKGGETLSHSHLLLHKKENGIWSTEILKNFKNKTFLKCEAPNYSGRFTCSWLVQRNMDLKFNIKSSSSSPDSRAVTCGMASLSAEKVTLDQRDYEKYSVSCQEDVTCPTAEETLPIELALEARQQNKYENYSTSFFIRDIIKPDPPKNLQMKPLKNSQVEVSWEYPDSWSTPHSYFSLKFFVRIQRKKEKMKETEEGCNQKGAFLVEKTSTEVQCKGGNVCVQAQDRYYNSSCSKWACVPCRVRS
# Chain of IL-12 (mouse; target of the rat anti-mouse mAbs C17.8 and C18.2) (mouse) (P43431 23-215 limits assumed, chain 2 of 2, further chain): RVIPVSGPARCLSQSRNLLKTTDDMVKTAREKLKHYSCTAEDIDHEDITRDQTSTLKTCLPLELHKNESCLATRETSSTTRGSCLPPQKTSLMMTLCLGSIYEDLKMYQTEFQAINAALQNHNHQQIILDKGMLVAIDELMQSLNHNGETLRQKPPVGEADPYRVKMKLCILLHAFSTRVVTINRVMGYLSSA
# [2] = target: T1, human p40 single mutant M23T; experiment: capture assay, relative binding affinity to p40 muteins (FIG. 4)
# Description: (§1) Seven human p40 single mutants, M23T, L40T, S43R, E45A, E45R, E59R, and D62R, and two double mutants, S43R/E45A and S43R/E45R, are used in the studies. The wide-type human p40, WT hu-p40, was used as the control. The p40 mutants were transiently expressed in HEK293E cells. The supernatants were used for binding assays.
# (§2) In brief, MSD high bind plates (Meso Scale Discovery, MD) were coated with 5 μl of a capture monoclonal antibody (5 μg/ml) at room temperature for 1 hour. […] One-hundred and fifty (150) μl of 5% MSD Blocker A buffer was added to each well and incubated for 1 hr at room temperature. Plates were washed three times with 0.1 M HEPES buffer (pH 7.4). These protein-charged ELISA plates were incubated with 25 μl of different transiently expressed p40 mutant supernatants (1:10 dilution with 0.1 M HEPES buffer, pH 7.4) for 1 hr at room temperature. The plates were washed three times with 0.1 M HEPES buffer (pH 7.4). Twenty-five (25) μl of different concentrations of MSD Sulfo-TAG labeled p40 mAb, ranging from 0 to 20 μg/ml, were dispensed to micro-wells. After incubation for 2 hrs shaking at room temperature, plates were washed 3 times with 0.1 M HEPES buffer (pH 7.4). One hundred and fifty (150) μl of diluted MSD Read Buffer T was dispensed into each well and the plates were analyzed with a SECTOR imager (MSD).
# [3] = target: T2, human p40 single mutant L40T; experiment: as above
# Description: as §1, §2
# [4] = target: T3, human p40 single mutant E45A; experiment: as above
# Description: as §1, §2
# [5] = target: T4, human p40 single mutant S43R; experiment: as above
# Description: as §1, §2
Molecule,"in vitro neutralization of IL-12, relative to the anti-p35 mAb (C18.2) (times (versus anti-p35 mAb)) [1]",reduction of binding [2],reduction of binding [3],reduction of binding [4],reduction of binding [5]
"C17.8 (rat anti-mouse IL-12/IL-23p40, IgG2a) (antibody)",5,,,,
B1,,~40%,~40%,~70%,~40%

# Source: US20090181027A1 (published 2009)
